T1: Lsm1-7 heptamer (Saccharomyces cerevisiae, UniProt P47017;P38203;P57743;P40070;P40089;Q06406;P53905 …)
T1 sequence 1: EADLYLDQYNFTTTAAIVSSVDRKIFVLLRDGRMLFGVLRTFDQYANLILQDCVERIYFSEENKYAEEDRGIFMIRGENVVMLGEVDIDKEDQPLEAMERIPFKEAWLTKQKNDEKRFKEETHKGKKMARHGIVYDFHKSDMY
T1 sequence 2: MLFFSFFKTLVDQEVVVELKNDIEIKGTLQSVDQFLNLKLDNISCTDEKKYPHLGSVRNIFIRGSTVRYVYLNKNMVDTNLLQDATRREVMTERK
T1 sequence 3: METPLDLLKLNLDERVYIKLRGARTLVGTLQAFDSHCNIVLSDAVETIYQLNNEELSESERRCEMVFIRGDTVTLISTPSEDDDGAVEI
T1 sequence 4: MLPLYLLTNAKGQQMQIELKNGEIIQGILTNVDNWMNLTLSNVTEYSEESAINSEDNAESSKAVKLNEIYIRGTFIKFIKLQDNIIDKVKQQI
T1 sequence 5: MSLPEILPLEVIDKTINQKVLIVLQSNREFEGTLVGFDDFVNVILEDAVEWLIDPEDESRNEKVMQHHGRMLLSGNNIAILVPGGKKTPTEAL
T1 sequence 6: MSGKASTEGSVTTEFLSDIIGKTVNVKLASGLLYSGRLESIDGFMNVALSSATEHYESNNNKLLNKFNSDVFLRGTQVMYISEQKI
T1 sequence 7: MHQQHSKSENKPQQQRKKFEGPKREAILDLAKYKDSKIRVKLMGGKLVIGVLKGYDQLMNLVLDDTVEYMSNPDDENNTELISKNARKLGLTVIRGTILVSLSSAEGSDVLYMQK

T2: Lsm7 (full length), subunit of the crystallized Lsm1-7 complex (S. cerevisiae, UniProt P53905 1-115)
T2 sequence: T1 sequence 7

B1: Lsm6 (full length), subunit of the crystallized Lsm1-7 complex (natural protein)
chain: T1 sequence 6
B2: Lsm5 (full length), subunit of the crystallized Lsm1-7 complex (natural protein)
chain: T1 sequence 5
B3: Lsm4 (residues 1-93), subunit of the crystallized Lsm1-7 complex (domain or fragment)
chain: T1 sequence 4

What was measured:
[1] = target: B2; experiment: crystal structure
[2] = target: T1, Lsm1-7 heptamer; experiment: BLI
[3] = target: T2, Lsm7 (full length), subunit of the …; experiment: crystal structure

Binder	binding result [3]	also measured
B1	–	binding result [1]: binds
UUUUUUUU (ssRNA) [oligo-U (U8)]	–	Kd [2]: ~2 µM
B2	binds	–
B3	binds	–
